Measured values from patent US20220220224A1 (Hoffmann-La Roche, published 2022).
Blank lines part the entries; values can stand above or below the binder they belong to.

Key:
[1] = biological target: T1, recombinant biotinylated monomeric Fc fusion of human Folate Receptor 1 (huFolR1 ECD-AcTev-Fcknob-Avi tag … (human, UniProt P0DOX5 223-449 = IgG part, biotin on the C-terminal Avi tag)); assay: SPR Biacore, avidity (bivalent, apparent KD), antigen-Fc on SA chip
T1 construct: also called huFolR1-Fc; human FolR1-Fc
Experimental: (§1) The avidity of the interaction between the anti-FolR1 IgGs or T cell bispecifics and the recombinant folate receptors was determined as described below (Table 38).
(§2) Recombinant biotinylated monomeric Fc fusions of human, cynomolgus and murine Folate Receptor 1 (FolR1-Fc) were directly coupled on a SA chip using the standard coupling instruction (Biacore, Freiburg/Germany). The immobilization level was about 160. The anti-FolR1 IgGs or T cell bispecifics were passed at a concentration range from 3.7 to 900 nM with a flow of 30 μL/minutes through the flow cells over 180 seconds. The dissociation was monitored for 600 seconds. Bulk refractive index differences were corrected for by subtracting the response obtained on reference flow cell immobilized with recombinant biotinylated murine IL2 receptor Fc fusion. The binding curves resulting from the bivalent binding of the IgG or T cell bispecifics were approximated to a 1:1 Langmuir binding (even though it is a 1:2 binding) and fitted with that model to get an apparent KD representing the avidity of the bivalent binding. The apparent avidity constants for the interactions were derived from the rate constants of the fitting using the Bia Evaluation software (GE Healthcare).

[2] = biological target: T2, recombinant biotinylated monomeric Fc fusion of cynomolgus Folate Receptor 1 (cy FolR1 ECD-AcTev-Fcknob-Avi … (cynomolgus, UniProt P0DOX5 223-449 = IgG part, biotin on the C-terminal Avi tag)); assay: as above
T2 construct: also called cyFolR1-Fc; cyno FolR1
Experimental: as §1, §2

[3] = biological target: T1, recombinant biotinylated monomeric Fc …; assay: SPR Biacore, affinity (monovalent), antibody captured via anti-Fab
Experimental: (§3) The affinity of the interaction between the anti-FolR1 IgGs or the T cell bispecifics and the recombinant folate receptors was determined as described below (Table 39).
(§4) For affinity measurement, direct coupling of around 10000 resonance units (RU) of the anti-human Fab specific antibody (Fab capture kit, GE Healthcare) was performed on a CM5 chip at pH 5.0 using the standard amine coupling kit (GE Healthcare). Anti-FolR1 IgGs or T cell bispecifics were captured at 20 nM with a flow rate of 10 μl/min for 40 sec, the reference flow cell was left without capture. Dilution series (12.35 to 3000 nM) of human and cyno Folate Receptor 1 Fc fusion were passed on all flow cells at 30 μl/min for 240 sec to record the association phase. The dissociation phase was monitored for 300 s and triggered by switching from the sample solution to HBS-EP. The chip surface was regenerated after every cycle using a double injection of 60 sec 10 mM Glycine-HCl pH 1.5. Bulk refractive index differences were corrected for by subtracting the response obtained on the reference flow cell 1. The affinity constants for the interactions were derived from the rate constants by fitting to a 1:1 Langmuir binding using the Bia Evaluation software (GE Healthcare).

[4] = biological target: T2, recombinant biotinylated monomeric Fc …; assay: as above
Experimental: as §3, §4

[5] = biological target: T3, recombinant biotinylated monomeric Fc fusion of murine Folate Receptor 1 (mu FolR1 ECD-AcTev-Fcknob-Avitag … (murine, UniProt P0DOX5 223-449 = IgG part, biotin on the C-terminal Avi tag)); assay: SPR Biacore, avidity set-up, antigen-Fc on SA chip
T3 construct: also called muFolR1-Fc; murine FolR1
Experimental: as §1, §2

[6] = biological target: T4, human FolR1 expressed on cells (HeLa, SKOV3, HT-29, transfected HEK cells) (human, UniProt P15328 25-234); assay: flow cytometry on HeLa cells
T4 construct: whole, on cells; also called FolR1 on HeLa cells; human FolR1 on cells

[7] = biological target: T1, recombinant biotinylated monomeric Fc …; assay: SPR Biacore, single injection on immobilized antigen-Fc
How it was run: (§5)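 Biacore T200 at 25 °C in HBS-EP (HEPES pH 7.4). Biotinylated FolR-Fc fusions captured on SA chip at about 300-400 RU. IgGs injected once at 500 nM for 60 s to assess cross-reactivity and specificity.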

[8] = biological target: T2, recombinant biotinylated monomeric Fc …; assay: as above
How it was run: as §5

[9] = biological target: T5, recombinant biotinylated monomeric Fc fusion of human Folate Receptor 2 (hu FolR2 ECD-AcTev-Fcknob-Avi tag … (human, UniProt P0DOX5 223-449 = IgG part, biotin on the C-terminal Avi tag)); assay: as above
T5 construct: also called FolR2-Fc
How it was run: as §5

[10] = biological target: T6, recombinant biotinylated monomeric Fc fusion of human Folate Receptor 3 (hu FolR3 ECD-AcTev-Fcknob-Avi tag … (human, UniProt P0DOX5 223-449 = IgG part, biotin on the C-terminal Avi tag)); assay: as above
T6 construct: also called FolR3-Fc
How it was run: as §5

[11] = biological target: T3, recombinant biotinylated monomeric Fc …; assay: as above
How it was run: as §5

[12] = biological target: T7, human FolR2 on transfected HEK cells (human, UniProt P14207 17-230); assay: flow cytometry on transfected HEK cells
T7 construct: whole, on cells

[13] = biological target: T4, human FolR1 expressed on cells (HeLa, …); assay: flow cytometry on transfected HEK cells

T4 sequence (P15328 25-234): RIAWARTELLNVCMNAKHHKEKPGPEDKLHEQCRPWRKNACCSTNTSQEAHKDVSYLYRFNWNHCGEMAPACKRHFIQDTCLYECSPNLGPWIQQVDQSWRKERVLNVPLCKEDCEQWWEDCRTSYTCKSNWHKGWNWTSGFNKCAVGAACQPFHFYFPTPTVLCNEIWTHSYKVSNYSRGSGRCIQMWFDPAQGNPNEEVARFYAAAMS
T7 sequence (P14207 17-230): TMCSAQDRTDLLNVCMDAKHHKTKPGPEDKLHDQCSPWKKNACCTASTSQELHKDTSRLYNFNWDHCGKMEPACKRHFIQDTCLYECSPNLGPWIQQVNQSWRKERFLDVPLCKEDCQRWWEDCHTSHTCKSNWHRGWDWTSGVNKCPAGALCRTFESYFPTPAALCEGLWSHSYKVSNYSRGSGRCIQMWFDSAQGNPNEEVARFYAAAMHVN

- Kd [1]: 0.0034 µM
- koff [1]: 0.000545 s⁻¹
- kon [1]: 162000 M⁻¹ s⁻¹
- Kd [2]: 0.0025 µM
- koff [2]: 0.00747 s⁻¹
- kon [2]: 2.98e+06 M⁻¹ s⁻¹
- Kd [3]: 0.095 µM
- koff [3]: 0.00227 s⁻¹
- kon [3]: 24000 M⁻¹ s⁻¹
- Kd [4]: 0.53 µM
- koff [4]: 0.012 s⁻¹
- kon [4]: 22500 M⁻¹ s⁻¹
- binding result [5]: no binding
B1: 16D5 D52dE IgG (antibody, V domains shown)
VH: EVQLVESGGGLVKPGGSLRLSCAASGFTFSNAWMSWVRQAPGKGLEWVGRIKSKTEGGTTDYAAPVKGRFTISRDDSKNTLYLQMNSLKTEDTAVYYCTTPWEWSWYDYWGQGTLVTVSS
VL: QAVVTQEPSLTVSPGGTVTLTCGSSTGAVTTSNYANWVQEKPGQAFRGLIGGTNKRAPGTPARFSGSLLGGKAALTLSGAQPEDEAEYYCALWYSNLWVFGGGTKLTVL
notes: IgG

- Kd [1]: 0.0092 µM
- koff [1]: 0.000775 s⁻¹
- kon [1]: 84000 M⁻¹ s⁻¹
- Kd [2]: 0.005 µM
- koff [2]: 0.00204 s⁻¹
- kon [2]: 412000 M⁻¹ s⁻¹
- Kd [3]: 0.23 µM
- koff [3]: 0.00162 s⁻¹
- kon [3]: 6970 M⁻¹ s⁻¹
- Kd [4]: 0.41 µM
- koff [4]: 0.00332 s⁻¹
- kon [4]: 8200 M⁻¹ s⁻¹
- binding result [5]: no binding
B2: 16D5 D52dQ IgG (antibody, V domains shown)
VH: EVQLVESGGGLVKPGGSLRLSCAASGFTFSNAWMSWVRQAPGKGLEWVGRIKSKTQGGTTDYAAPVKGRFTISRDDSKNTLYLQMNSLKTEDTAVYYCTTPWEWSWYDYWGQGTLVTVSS
VL: B1 VL
notes: IgG

- binding result [6]: no binding
- binding result [7]: no binding (tested: 500 nM)
- binding result [8]: no binding (tested: 500 nM)
- binding result [9]: no binding (tested: 500 nM)
- binding result [10]: no binding (tested: 500 nM)
B3: 14E4 IgG (antibody, V domains shown)
VH: not shown
VL: EIVLTQSPGTLSLSPGERATLSCRASQSVSSSYLAWYQQKPGQAPRLLIYGASSRATGIPDRFSGSGSGTDSTLTISRLEPEDFAVYYCQQPTSSPITFGQGTKVEIK
notes: human IgG1

- binding result [11]: no binding (tested: 500 nM)
- binding result [9]: no binding (tested: 500 nM)
- binding result [10]: no binding (tested: 500 nM)
- binding result [12]: no binding
- binding result [13]: binds
B4: 9D11 IgG (antibody, V domains shown)
VH: QVQLVQSGAEVKKPGASVKVSCKASGYTFTSYYMHWVRQAPGQGLEWMGIINPSGGPTSYAQKFQGRVTMTRDTSTSTVYMELSSLRSEDTAVYYCARGDFAWLDYWGQGTLVTVSS
VL: not shown
notes: human IgG1
